Reference: patent US6545141

Target: T7 peptide-added FC99 protein having T7 peptide added to the N-terminal of the amino acid sequence described as SEQ ID NO: 1 (human) (UniProt Q92529)
Test: cell-based or functional assay

Sequence of UniProt Q92529 (Q92529 other isoform, or with tags, fused parts or gaps limits assumed): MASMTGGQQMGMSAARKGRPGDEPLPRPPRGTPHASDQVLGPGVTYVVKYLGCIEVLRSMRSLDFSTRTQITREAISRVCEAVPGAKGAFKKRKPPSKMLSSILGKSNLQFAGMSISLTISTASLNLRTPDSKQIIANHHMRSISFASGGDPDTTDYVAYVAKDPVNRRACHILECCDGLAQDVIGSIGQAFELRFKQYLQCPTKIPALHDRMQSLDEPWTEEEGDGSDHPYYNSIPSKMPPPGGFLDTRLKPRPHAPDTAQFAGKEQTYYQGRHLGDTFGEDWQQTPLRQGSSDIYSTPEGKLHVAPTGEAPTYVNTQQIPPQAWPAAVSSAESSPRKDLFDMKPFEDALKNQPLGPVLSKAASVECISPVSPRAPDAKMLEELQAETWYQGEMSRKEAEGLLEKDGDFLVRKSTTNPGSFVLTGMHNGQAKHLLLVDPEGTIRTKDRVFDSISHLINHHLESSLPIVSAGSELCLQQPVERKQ

BDNF-dependent increase in the tyrosine phosphorylation of the FC99 protein (band densities of Lanes 2 and 3, NIH Image): 2 fold
Substance: TrkB receptor activated by the administration of BDNF
